Patent US20060024313A1, “Agents that disrupt dimer formation in DPP-IV family of prolyl dipeptidases” (priority 2004, published 2006)
“Also recorded” adds a separate entry of the source.

Legend:
[1] = Analytical ultracentrifugation (AUC): sedimentation velocity and equilibrium; assay type: physicochemical; details: PBS buffer where stated
Protocol: Buffer was changed using an Amicon device and DPP-IV proteins were allowed to equilibrate for at least four hours or longer as indicated in the text at 25° C. after buffer changes. The sedimentation coefficients (S) of the enzyme were estimated by a Beckman-Coulter XL-A analytical ultracentrifuge with an An60Ti rotor as described (25). Sedimentation velocity analysis was performed at 40,000 rpm at 25° C. with standard double sector aluminum centerpieces. The UV absorption of the cells was scanned every 5 min for 4 hours. Sedimentation equilibrium was performed at 20° C. with six-channel open centerpieces and then centrifuged at 12,000 rpm for 12 hours. The data from both sedimentation velocity and sedimentation experiments were analyzed with the SedFit version 8.7 program to obtain molecular weights and sedimentation coefficients (25). Sednterp version 1.07 program is used to obtain solvent density, viscosity, Stokes' radius (Rs) and anhydrous frictional ratio (f/fo).

[2] = system: DPP-IV; assay: Kinetic constant measurements with chromogenic substrate H-Gly-Pro-pNA; assay type: biochemical, human
Protocol: To measure the kinetic parameters, the chromogenic substrate H-Gly-Pro-pNA was utilized to initiate the reaction, which was monitored at OD 405 nm as a function of time (21). […] The initial rate was measured with less than 10% substrate depletion for the first 10 to 300 seconds. The steady-state parameters, kcat and Km, were determined from initial velocity measurements at 0.5 to 5 Km of the substrate concentrations. Lineweaver-Burk plots were analyzed using non-linear regression of the Michaelis-Menten equation. Correlation coefficients better than 0.99 were obtained throughout.

[3] = Table III, monomer form of the mutant
[4] = values in text, monomeric mutants
[5] = Table III, dimer form of the mutant

Molecule | quaternary structure (monomer/dimer) by AUC [1] | quaternary structure (monomer/dimer) by AUC ([1]; listed as F713A) | Km [2, 3] [µM] | kcat [2, 3] [s − 1] | Km [2, 4] [µM] | kcat [2, 4] [S^−1] | Km [2, 5] [µM] | kcat [2, 5] [s − 1]
DPP 8: member of the DPP-IV family of prolyl dipeptidases (protein) MAAAMETEQLGVEIFETADCEENIESQDRPKLEPFYVERYSWSQLKKLLADTRKYHGYMMAKAPHDFMFVKRNDPDGPHSDRIYYLAMSGENRENTLFYSEIPKTINRAAVLMLSWKPLLDLFQATLDYGMYSREEELLRERKRIGTVGIASYDYHQGSGTFLFQAGSGIYHVKDGGPQGFTQQPLRPNLVETSCPNIRMDPKLCPADPDWIAFIHSNDIWISNIVTREERRLTYVHNELANMEEDARSAGVATFVLQEEFDRYSGYWWCPKAETTPSGGKILRILYEENDESEVEIIHVTSPMLETRRADSFRYPKTGTANPKVTFKMSEIMIDAEGRIIDVIDKELIQPFEILFEGVEYIARAGWTPEGKYAWSILLDRSQTRLQIVLISPELFIPVEDDVMERQRLIESVPDSVTPLIIYEETTDIWINIHDIFHVFPQSHEEEIEFIFASECKTGFRHLYKITSILKESKYKRSSGGLPAPSDFKCPIKEEIAITSGEWEVLGRHGSNIQVDEVRRLVYFEGTKDSPLEHHLYVVSYVNPGEVTRLTDRGYSHSCCISQHCDFFISKYSNQKNPHCVSLYKLSSPEDDPTCKTKEFWATILDSAGPLPDYTPPEIFSFESTTGFTLYGMLYKPHDLQPGKKYPTVLFIYGGPQVQLVNNRFKGVKYFRLNTLASLGYVVVVIDNRGSCHRGLKFEGAFKYKMGQIEIDDQVEGLQYLASRYDFIDLDRVGIHGWSYGGYLSLMALMQRSDIFRVAIAGAPVTLWIFYDTGYTERYMGHPDQNEQGYYLGSVAMQAEKFPSEPNRLLLLHGFLDENVHFAHTSILLSFLVRAGKPYDLQIYPQERHSIRVPESGEHYELHLLHYLQENLGSRIAALKVI | is a dimer; also recorded: exists as a dimer | – | – | – | – | – | – | –
713A: DPP-IV C-terminal loop mutant, F713 substituted with Alanine (protein) SRKTYTLTDYLKNTYRLKLYSLRWISDHEYLYKQENNILVFNAEYGNSSVFLENSTFDEFGHSINDYSISPDGQFILLEYNYVKQWRHSYTASYDIYDLNKRQLITEERIPNNTQWVTWSPVGHKLAYVWNNDIYVKIEPNLPSYRITWTGKEDIIYNGITDWVYEEEVFSAYSALWWSPNGTFLAYAQFNDTEVPLIEYSFYSDESLQYPKTVRVPYPKAGAVNPTVKFFVVNTDSLSSVTNATSIQITAPASMLIGDHYLCDVTWATQERISLQWLRRIQNYSVMDICDYDESSGRWNCLVARQHIEMSTTGWVGRFRPSEPHFTLDGNSFYKIISNEEGYRHICYFQIDKKDCTFITKGTWEVIGIEALTSDYLYYISNEYKGMPGGRNLYKIQLSDYTKVTCLSCELNPERCQYYSVSFSKEAKYYQLRCSGPGLPLYTLHSSVNDKGLRVLEDNSALDKMLQNVQMPSKKLDFIILNETKFWYQMILPPHFDKSKKYPLLLDVYAGPCSQKADTVFRLNWATYLASTENIIVASFDGRGSGYQGDKIMHAINRRLGTFEVEDQIEAARQFSKMGFVDNKRIAIWGWSYGGYVTSMVLGSGSGVFKCGIAVAPVSRWEYYDSVYTERYMGLPTPEDNLDHYRNSTVMSRAENFKQVEYLLIHGTADDNVHAQQSAQISKALVDVGVDFQAMWYTDEDHGIASSTAHQHIYTHMSHFIKQCFSLP | – | monomers; also recorded: monomeric DPP-IV | 50.1 | 1.8 | 51 | 1 | – | –
734A: DPP-IV C-terminal loop mutant, W734 substituted with Alanine (protein) SRKTYTLTDYLKNTYRLKLYSLRWISDHEYLYKQENNILVFNAEYGNSSVFLENSTFDEFGHSINDYSISPDGQFILLEYNYVKQWRHSYTASYDIYDLNKRQLITEERIPNNTQWVTWSPVGHKLAYVWNNDIYVKIEPNLPSYRITWTGKEDIIYNGITDWVYEEEVFSAYSALWWSPNGTFLAYAQFNDTEVPLIEYSFYSDESLQYPKTVRVPYPKAGAVNPTVKFFVVNTDSLSSVTNATSIQITAPASMLIGDHYLCDVTWATQERISLQWLRRIQNYSVMDICDYDESSGRWNCLVARQHIEMSTTGWVGRFRPSEPHFTLDGNSFYKIISNEEGYRHICYFQIDKKDCTFITKGTWEVIGIEALTSDYLYYISNEYKGMPGGRNLYKIQLSDYTKVTCLSCELNPERCQYYSVSFSKEAKYYQLRCSGPGLPLYTLHSSVNDKGLRVLEDNSALDKMLQNVQMPSKKLDFIILNETKFWYQMILPPHFDKSKKYPLLLDVYAGPCSQKADTVFRLNWATYLASTENIIVASFDGRGSGYQGDKIMHAINRRLGTFEVEDQIEAARQFSKMGFVDNKRIAIWGWSYGGYVTSMVLGSGSGVFKCGIAVAPVSRWEYYDSVYTERYMGLPTPEDNLDHYRNSTVMSRAENFKQVEYLLIHGTADDNVHFQQSAQISKALVDVGVDFQAMAYTDEDHGIASSTAHQHIYTHMSHFIKQCFSLP | monomers | – | 90.5 | 0.3 | – | – | – | –
730A: DPP-IV C-terminal loop mutant, F730 substituted with Alanine (protein) SRKTYTLTDYLKNTYRLKLYSLRWISDHEYLYKQENNILVFNAEYGNSSVFLENSTFDEFGHSINDYSISPDGQFILLEYNYVKQWRHSYTASYDIYDLNKRQLITEERIPNNTQWVTWSPVGHKLAYVWNNDIYVKIEPNLPSYRITWTGKEDIIYNGITDWVYEEEVFSAYSALWWSPNGTFLAYAQFNDTEVPLIEYSFYSDESLQYPKTVRVPYPKAGAVNPTVKFFVVNTDSLSSVTNATSIQITAPASMLIGDHYLCDVTWATQERISLQWLRRIQNYSVMDICDYDESSGRWNCLVARQHIEMSTTGWVGRFRPSEPHFTLDGNSFYKIISNEEGYRHICYFQIDKKDCTFITKGTWEVIGIEALTSDYLYYISNEYKGMPGGRNLYKIQLSDYTKVTCLSCELNPERCQYYSVSFSKEAKYYQLRCSGPGLPLYTLHSSVNDKGLRVLEDNSALDKMLQNVQMPSKKLDFIILNETKFWYQMILPPHFDKSKKYPLLLDVYAGPCSQKADTVFRLNWATYLASTENIIVASFDGRGSGYQGDKIMHAINRRLGTFEVEDQIEAARQFSKMGFVDNKRIAIWGWSYGGYVTSMVLGSGSGVFKCGIAVAPVSRWEYYDSVYTERYMGLPTPEDNLDHYRNSTVMSRAENFKQVEYLLIHGTADDNVHFQQSAQISKALVDVGVDAQAMWYTDEDHGIASSTAHQHIYTHMSHFIKQCFSLP | mixture with both monomers and dimers | – | 53.7 | 0.2 | – | – | 56.3 | 27.9
724A: DPP-IV C-terminal loop mutant, V724 substituted with Alanine (protein) SRKTYTLTDYLKNTYRLKLYSLRWISDHEYLYKQENNILVFNAEYGNSSVFLENSTFDEFGHSINDYSISPDGQFILLEYNYVKQWRHSYTASYDIYDLNKRQLITEERIPNNTQWVTWSPVGHKLAYVWNNDIYVKIEPNLPSYRITWTGKEDIIYNGITDWVYEEEVFSAYSALWWSPNGTFLAYAQFNDTEVPLIEYSFYSDESLQYPKTVRVPYPKAGAVNPTVKFFVVNTDSLSSVTNATSIQITAPASMLIGDHYLCDVTWATQERISLQWLRRIQNYSVMDICDYDESSGRWNCLVARQHIEMSTTGWVGRFRPSEPHFTLDGNSFYKIISNEEGYRHICYFQIDKKDCTFITKGTWEVIGIEALTSDYLYYISNEYKGMPGGRNLYKIQLSDYTKVTCLSCELNPERCQYYSVSFSKEAKYYQLRCSGPGLPLYTLHSSVNDKGLRVLEDNSALDKMLQNVQMPSKKLDFIILNETKFWYQMILPPHFDKSKKYPLLLDVYAGPCSQKADTVFRLNWATYLASTENIIVASFDGRGSGYQGDKIMHAINRRLGTFEVEDQIEAARQFSKMGFVDNKRIAIWGWSYGGYVTSMVLGSGSGVFKCGIAVAPVSRWEYYDSVYTERYMGLPTPEDNLDHYRNSTVMSRAENFKQVEYLLIHGTADDNVHFQQSAQISKALADVGVDFQAMWYTDEDHGIASSTAHQHIYTHMSHFIKQCFSLP | mixture with both monomers and dimers | – | 76.4 | 0.5 | – | – | 87.5 | 48.3
735A: DPP-IV C-terminal loop mutant, Y735 substituted with Alanine (protein) SRKTYTLTDYLKNTYRLKLYSLRWISDHEYLYKQENNILVFNAEYGNSSVFLENSTFDEFGHSINDYSISPDGQFILLEYNYVKQWRHSYTASYDIYDLNKRQLITEERIPNNTQWVTWSPVGHKLAYVWNNDIYVKIEPNLPSYRITWTGKEDIIYNGITDWVYEEEVFSAYSALWWSPNGTFLAYAQFNDTEVPLIEYSFYSDESLQYPKTVRVPYPKAGAVNPTVKFFVVNTDSLSSVTNATSIQITAPASMLIGDHYLCDVTWATQERISLQWLRRIQNYSVMDICDYDESSGRWNCLVARQHIEMSTTGWVGRFRPSEPHFTLDGNSFYKIISNEEGYRHICYFQIDKKDCTFITKGTWEVIGIEALTSDYLYYISNEYKGMPGGRNLYKIQLSDYTKVTCLSCELNPERCQYYSVSFSKEAKYYQLRCSGPGLPLYTLHSSVNDKGLRVLEDNSALDKMLQNVQMPSKKLDFIILNETKFWYQMILPPHFDKSKKYPLLLDVYAGPCSQKADTVFRLNWATYLASTENIIVASFDGRGSGYQGDKIMHAINRRLGTFEVEDQIEAARQFSKMGFVDNKRIAIWGWSYGGYVTSMVLGSGSGVFKCGIAVAPVSRWEYYDSVYTERYMGLPTPEDNLDHYRNSTVMSRAENFKQVEYLLIHGTADDNVHFQQSAQISKALVDVGVDFQAMWATDEDHGIASSTAHQHIYTHMSHFIKQCFSLP | monomers | – | 88.6 | 0.05 | – | – | – | –
